{"source": "paper PMC12098869", "about": "“An mRNA-display derived cyclic peptide scaffold reveals the substrate binding interactions of an N-terminal cysteine oxidase” (Nature Communications, 2025)", "binders": {"B1": {"name": "IL32(2-15), synthetic peptide corresponding to the methionine excised N-terminus of IL32, residues 2-15 (peptide, UniProt P24001 2-15, looked up)", "peptide": "CFPKVLSDDMKKLK", "notes": "interleukin 32 (IL32), residues 2-15 (N-terminal Cys exposed); also called 14-mer IL32; source: synthetic peptide"}}, "test_in_all_cases": "SPR; biotinylated ADO or ADO mutant immobilised on a Biotin CAP chip (~2500-3000 RU), substrate peptide injected; Biacore T200, 4 °C; 20 mM HEPES pH 7.5, 500 mM NaCl, 10 mM DTT, 0.1% tween-20; 50 µL/minute; multi-cycle or single-cycle mode not given; each cell is one of three independent measurements", "details_in_all_cases": "both partners purified", "key": {"[1]": {"molecular_target": "T1, ADO-Y87F, N-terminally His-tagged and biotinylated (human, UniProt Q96SZ5 1-270, Y87F, biotin (biotinylated during expression))", "T1 construct": "2-aminoethanethiol dioxygenase (ADO), human, UniProt Q96SZ5, full length, site-directed mutant; source: E. coli Rosetta2(DE3), purified (Ni-NTA, SEC); not shown: biotinylation tag (from the vector pQE80L-Navi), N-terminal, kept", "T1 sequence (looked up)": "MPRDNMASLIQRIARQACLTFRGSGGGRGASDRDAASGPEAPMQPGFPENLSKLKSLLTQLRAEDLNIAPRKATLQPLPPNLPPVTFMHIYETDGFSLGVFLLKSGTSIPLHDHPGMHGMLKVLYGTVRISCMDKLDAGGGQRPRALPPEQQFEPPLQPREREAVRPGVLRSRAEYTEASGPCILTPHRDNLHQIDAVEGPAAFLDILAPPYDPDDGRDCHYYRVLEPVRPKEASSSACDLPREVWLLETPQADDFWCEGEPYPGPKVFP"}, "[2]": {"molecular_target": "T2, ADO-F101A, N-terminally His-tagged and biotinylated (human, UniProt Q96SZ5 1-270, F101A, biotin (biotinylated during expression))", "T2 construct": "2-aminoethanethiol dioxygenase (ADO), human, UniProt Q96SZ5, full length, site-directed mutant; source: E. coli Rosetta2(DE3), purified (Ni-NTA, SEC); not shown: biotinylation tag (from the vector pQE80L-Navi), N-terminal, kept", "T2 sequence (looked up)": "T1 sequence (looked up) with F87Y, F101A"}, "[3]": {"molecular_target": "T3, ADO-I109A, N-terminally His-tagged and biotinylated (human, UniProt Q96SZ5 1-270, I109A, biotin (biotinylated during expression))", "T3 construct": "2-aminoethanethiol dioxygenase (ADO), human, UniProt Q96SZ5, full length, site-directed mutant; source: E. coli Rosetta2(DE3), purified (Ni-NTA, SEC); not shown: biotinylation tag (from the vector pQE80L-Navi), N-terminal, kept", "T3 sequence (looked up)": "T1 sequence (looked up) with F87Y, I109A"}, "[4]": {"molecular_target": "T4, ADO-C220A, N-terminally His-tagged and biotinylated (human, UniProt Q96SZ5 1-270, C220A, biotin (biotinylated during expression))", "T4 construct": "2-aminoethanethiol dioxygenase (ADO), human, UniProt Q96SZ5, full length, site-directed mutant; source: E. coli Rosetta2(DE3), purified (Ni-NTA, SEC); not shown: biotinylation tag (from the vector pQE80L-Navi), N-terminal, kept", "T4 sequence (looked up)": "T1 sequence (looked up) with F87Y, C220A"}, "[5]": {"molecular_target": "T5, ADO-Y87A, N-terminally His-tagged and biotinylated (human, UniProt Q96SZ5 1-270, Y87A, biotin (biotinylated during expression))", "T5 construct": "2-aminoethanethiol dioxygenase (ADO), human, UniProt Q96SZ5, full length, site-directed mutant; source: E. coli Rosetta2(DE3), purified (Ni-NTA, SEC); not shown: biotinylation tag (from the vector pQE80L-Navi), N-terminal, kept", "T5 sequence (looked up)": "T1 sequence (looked up) with F87A"}}, "note": "Where a chain is given by its changes, count along the chain named. Where “and” joins values, the source holds several entries; their conditions need not be identical. Equal entries are not always repeated.", "data": [{"binder": "B1", "values": [{"measurement": "Kd", "setting": "[1]", "value": "0.303 µM and 0.327 µM and 0.329 µM"}, {"measurement": "Kd", "setting": "[2]", "value": "37.9 µM and 35 µM and 37.6 µM"}, {"measurement": "Kd", "setting": "[3]", "value": "14.2 µM and 15.1 µM and 18.4 µM"}, {"measurement": "Kd", "setting": "[4]", "value": "1.44 µM and 1.18 µM and 1.43 µM"}, {"measurement": "Kd", "setting": "[5]", "value": "4.57 µM and 3.79 µM and 4.17 µM"}]}]}
